Test results reported in PMC9059161.

Target: RHAU–casp9

time to cleave half of casp3 (12 μM) by RHAU–casp9 (150 nM) without TERRA: 120 min
Substance: RHAU–casp9 (enzyme)
